Reference: publication PMC4822050

How the values were obtained:
Experiment in all cases: FP; ITC: 10 mM HEPES pH 8.0, 100 mM NaCl, 18 C; EMSA: 20 mM HEPES pH 7.5, 100 mM NaCl, 8% glycerol, 1 mM DTT, on ice; pull-down: 20 mM HEPES-NaOH pH 8.0, 100 mM NaC
[1] = target: T1, SRA-Spacer-652 (human, UniProt Q96T88 414-652)
T1 sequence: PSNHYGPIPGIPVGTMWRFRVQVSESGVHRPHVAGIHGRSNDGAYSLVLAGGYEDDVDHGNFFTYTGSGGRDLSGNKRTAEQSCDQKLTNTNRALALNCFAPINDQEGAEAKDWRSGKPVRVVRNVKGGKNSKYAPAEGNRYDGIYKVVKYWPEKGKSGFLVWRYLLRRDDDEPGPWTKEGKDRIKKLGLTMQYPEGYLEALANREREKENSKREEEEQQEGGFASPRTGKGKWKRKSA

[2] = target: T2, UHRF1 delta627-674 (human, UniProt Q96T88 1-793, del627-674)
T2 sequence: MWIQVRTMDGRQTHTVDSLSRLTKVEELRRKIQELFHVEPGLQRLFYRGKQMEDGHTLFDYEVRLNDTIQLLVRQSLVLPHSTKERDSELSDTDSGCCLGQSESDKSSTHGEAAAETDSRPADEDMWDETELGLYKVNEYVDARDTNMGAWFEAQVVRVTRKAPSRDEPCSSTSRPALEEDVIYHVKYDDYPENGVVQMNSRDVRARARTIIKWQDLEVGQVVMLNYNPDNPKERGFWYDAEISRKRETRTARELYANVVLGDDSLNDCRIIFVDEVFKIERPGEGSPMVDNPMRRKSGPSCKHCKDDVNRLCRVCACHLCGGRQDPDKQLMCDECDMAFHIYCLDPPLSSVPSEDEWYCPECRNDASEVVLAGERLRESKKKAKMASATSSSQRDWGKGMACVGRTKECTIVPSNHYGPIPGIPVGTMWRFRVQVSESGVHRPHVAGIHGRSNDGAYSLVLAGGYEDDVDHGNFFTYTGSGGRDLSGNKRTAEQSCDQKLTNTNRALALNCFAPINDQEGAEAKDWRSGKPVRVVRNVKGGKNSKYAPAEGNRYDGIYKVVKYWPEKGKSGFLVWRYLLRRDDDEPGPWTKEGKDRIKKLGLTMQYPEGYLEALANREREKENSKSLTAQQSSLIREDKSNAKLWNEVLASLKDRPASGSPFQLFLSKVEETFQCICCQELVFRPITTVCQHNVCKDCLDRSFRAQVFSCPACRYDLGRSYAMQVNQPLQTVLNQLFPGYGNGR

[3] = target: T3, UHRF1 full-length (human, UniProt Q96T88 1-793)
T3 sequence: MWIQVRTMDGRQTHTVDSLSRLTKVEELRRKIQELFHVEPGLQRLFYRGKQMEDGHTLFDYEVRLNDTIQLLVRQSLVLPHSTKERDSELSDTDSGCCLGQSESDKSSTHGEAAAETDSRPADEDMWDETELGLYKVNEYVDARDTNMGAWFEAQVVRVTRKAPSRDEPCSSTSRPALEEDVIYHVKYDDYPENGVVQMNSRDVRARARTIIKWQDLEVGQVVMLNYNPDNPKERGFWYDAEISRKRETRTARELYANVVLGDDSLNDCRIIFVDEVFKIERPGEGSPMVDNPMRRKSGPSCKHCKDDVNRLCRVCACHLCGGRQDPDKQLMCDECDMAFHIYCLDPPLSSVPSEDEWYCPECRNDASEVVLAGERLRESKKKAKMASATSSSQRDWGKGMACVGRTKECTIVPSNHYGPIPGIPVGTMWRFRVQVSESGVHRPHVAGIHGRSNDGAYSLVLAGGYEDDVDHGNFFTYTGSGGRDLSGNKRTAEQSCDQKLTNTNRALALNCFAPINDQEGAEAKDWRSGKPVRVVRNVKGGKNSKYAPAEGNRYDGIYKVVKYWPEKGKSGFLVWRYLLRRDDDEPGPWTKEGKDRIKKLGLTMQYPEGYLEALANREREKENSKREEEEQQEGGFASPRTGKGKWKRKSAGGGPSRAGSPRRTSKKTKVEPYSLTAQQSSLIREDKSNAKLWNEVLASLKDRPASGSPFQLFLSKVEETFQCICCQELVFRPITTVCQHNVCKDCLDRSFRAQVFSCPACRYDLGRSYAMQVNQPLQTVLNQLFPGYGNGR

[4] = target: T4, UHRF1 deltaTTD (human, UniProt Q96T88 1-793, del134-285)
T4 sequence: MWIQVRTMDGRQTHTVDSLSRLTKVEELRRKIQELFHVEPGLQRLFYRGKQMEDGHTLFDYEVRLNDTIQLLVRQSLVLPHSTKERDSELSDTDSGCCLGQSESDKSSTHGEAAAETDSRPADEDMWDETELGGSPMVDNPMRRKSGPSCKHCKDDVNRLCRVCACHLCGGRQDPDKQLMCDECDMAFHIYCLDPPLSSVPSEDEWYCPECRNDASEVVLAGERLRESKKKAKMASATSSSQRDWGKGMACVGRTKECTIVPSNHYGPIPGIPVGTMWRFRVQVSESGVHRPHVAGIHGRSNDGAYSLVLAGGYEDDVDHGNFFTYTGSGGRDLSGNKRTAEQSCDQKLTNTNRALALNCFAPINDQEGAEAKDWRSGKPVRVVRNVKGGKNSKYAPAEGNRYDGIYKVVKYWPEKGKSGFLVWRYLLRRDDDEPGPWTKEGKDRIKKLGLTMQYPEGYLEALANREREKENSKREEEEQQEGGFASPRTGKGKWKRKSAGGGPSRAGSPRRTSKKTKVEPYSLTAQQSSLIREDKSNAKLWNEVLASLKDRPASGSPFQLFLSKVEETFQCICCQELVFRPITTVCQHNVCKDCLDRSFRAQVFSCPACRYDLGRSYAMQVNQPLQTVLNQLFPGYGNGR

B1: FAM-12bp-HM-DNA (dsDNA)
DNA 1: CCATGCGCTGAC
DNA 2: GTCAGCGCATGG
modifications: 5-methyl-dC at position 6 of strand 2 (GTCAGXGCATGG)
- Kd [1]: 1.87 ± 0.33 µM
- Kd [2]: 4.94 ± 1.09 µM
- Kd [3]: 0.35 ± 0.07 µM
- Kd [4]: 0.49 ± 0.08 µM
